Results reported in PMC5725915.

Molecular target: human factor Xa (human)
Assay: prothrombinase activity titration

Chain of human factor Xa (human) (P00742 whole entry): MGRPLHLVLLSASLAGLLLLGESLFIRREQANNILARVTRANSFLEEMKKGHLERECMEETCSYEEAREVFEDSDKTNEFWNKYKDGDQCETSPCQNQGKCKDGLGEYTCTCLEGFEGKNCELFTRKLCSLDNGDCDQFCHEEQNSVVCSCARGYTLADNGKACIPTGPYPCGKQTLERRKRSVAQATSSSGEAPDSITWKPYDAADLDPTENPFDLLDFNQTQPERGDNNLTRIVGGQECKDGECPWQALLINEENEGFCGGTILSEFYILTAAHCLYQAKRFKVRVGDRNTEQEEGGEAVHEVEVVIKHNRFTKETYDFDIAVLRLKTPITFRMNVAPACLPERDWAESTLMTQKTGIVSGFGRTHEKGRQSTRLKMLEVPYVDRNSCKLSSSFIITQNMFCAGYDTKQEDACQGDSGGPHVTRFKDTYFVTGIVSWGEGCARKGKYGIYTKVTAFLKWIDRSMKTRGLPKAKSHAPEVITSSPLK

Kd: 0.48 nM
Substance: wild-type recombinant human fV activated with thrombin (rhfVa^WT) (from UniProt P12259 29-737; P12259 1574-2224) (complex)
